Here are results for five molecules from doi:10.1101/787937.

A word on the Kd: it is the equilibrium constant for the complex coming apart. High values mean weaker binding, low ones tighter binding.

The target of series [1] is T1, YTHDC1 YTH domain (human, UniProt Q96MU7 345-509). The experiment in a line: ITC. (In general: ITC needs no label: the signal is the heat of the interaction.)
For series [2], the target named is T1, YTHDC1 YTH domain. The experiment in a line: X-ray crystallography.

GGACU (ssRNA, m6A at position 3) [GG(m6A)CU] returned a Kd with YTHDC1 YTH domain [1] of 500 nM.

Consider GACU (ssRNA, m6A at position 2) [G(m6A)CU], for which, in the series with YTHDC1 YTH domain [2], the binding result was “binds”.

ACU (ssRNA, m6A at position 1) [(m6A)CU]: the binding result with YTHDC1 YTH domain [2] is “binds”.

For GAC (ssRNA, m6A at position 2) [G(m6A)C], the binding result with YTHDC1 YTH domain [2] was “binds”.

Turning to GGAC (ssRNA, m6A at position 3) [GG(m6A)C], in the series with YTHDC1 YTH domain [2], the binding result was “binds”.
